The results in this text go back to publication PMC11074299, “Deciphering DED assembly mechanisms in FADD-procaspase-8-cFLIP complexes regulating apoptosis” (Nature Communications, 2024).

First the molecules themselves.
B1: full-length Casp-8 mutant F122G/L123G/C360A/D374A/D384A (natural protein, human, UniProt Q14790 1-479, looked up)
chain: MDFSRNLYDIGEQLDSEDLASLKFLSLDYIPQRKQEPIKDALMLFQRLQEKRMLEESNLSFLKELLFRINRLDLLITYLNTRKEEMERELQTPGRAQISAYRVMLYQISEEVSRSELRSFKGGLQEEISKCKLDDDMNLLDIFIEMEKRVILGEGKLDILKRVCAQINKSLLKIINDYEEFSKERSSSLEGSPDEFSNGEELCGVMTISDSPREQDSESQTLDKVYQMKSKPRGYCLIINNHNFAKAREKVPKLHSIRDRNGTHLDAGALTTTFEELHFEIKPHDDCTVEQIYEILKIYQLMDHSNMDCFICCILSHGDKGIIYGTDGQEAPIYELTSQFTGLKCPSLAGKPKVFFIQAAQGDNYQKGIPVETASEEQPYLEMALSSPQTRYIPDEADFLLGMATVNNCVSYRNPAEGTWYIQSLCQSLRERCPRGDDILTILTEVNYEVSNKDDKKNMGKQMPQPTFTLRKKLVFPSD
notes: procaspase-8 (Casp-8), human, full length with FGLG mutations, catalytic inactivity and processing deficiencies; only the tDED is visible in the cryo-EM maps (protease domain not visible); The methods name E. coli BL21-CodonPlus only for FADD, the Casp-8 tDED mutant and cFLIP tDED; also called Casp-8^tDED molecules C8a, C8b, C8c (triple-FADD complex)
B2: full-length FADD H9G mutant (FADD^FuL_H9G) (natural protein)
chain: MDPFLVLLGSVSSSLSSSELTELKFLCLGRVGKRKLERVQSGLDLFSMLLEQNDLEPGHTELLRELLASLRRHDLLRRVDDFEAGAAAGAAPGEEDLCAAFNVICDNVGKDWRRLARQLKVSDTKIDSIEDRYPRNLTERVRESLRIWKNTEKENATVAHLVGALRSCQMNLVADLVQEVQQARDLQNRSGAMSPMSWNSDASTSEAS
notes: Fas-associated protein with death domain (FADD), human, full length, H9G; only the DED is visible in the crystal structure (FADD DD not visible); A selenomethionine-substituted complex was also made for phasing (PDB 8YD7); also called FADD^DED molecule FAl; source: E. coli BL21-CodonPlus, co-purified in the ternary complex (Ni-NTA, SEC); not shown: 6xHis, C-terminal, kept
B3: wild-type full-length FADD (FADD^FuL) (natural protein, human, UniProt Q13158 1-208, looked up)
chain: B2 chain with G9H
notes: Fas-associated protein with death domain (FADD), human, wild type, full length; only the DED is visible in the cryo-EM maps; also called FA^FuL; WT FADD; source: E. coli BL21-CodonPlus; co-purified in the ternary complex (Ni-NTA, SEC); also in precipitates of overexpressed proteins resuspended in water; not shown: 6xHis, C-terminal, kept
B4: Casp-8^tDED_F122G/L123G mutant (domain or fragment, human, UniProt Q14790 1-185, looked up)
chain: MDFSRNLYDIGEQLDSEDLASLKFLSLDYIPQRKQEPIKDALMLFQRLQEKRMLEESNLSFLKELLFRINRLDLLITYLNTRKEEMERELQTPGRAQISAYRVMLYQISEEVSRSELRSFKGGLQEEISKCKLDDDMNLLDIFIEMEKRVILGEGKLDILKRVCAQINKSLLKIINDYEEFSKER
notes: procaspase-8 (Casp-8) tandem DED, human, residues 1-185, F122G/L123G (FGLG) in the FL motif of DED2; The methods name no tag for this protein; also called C8^FGLG; source: E. coli BL21-CodonPlus; co-purified in the ternary complex (Ni-NTA, SEC); also purified alone by SEC
B5: Casp-8^tDED F122A mutant (Casp-8^tDED_F122A) (domain or fragment, human, UniProt Q14790 1-185, looked up)
chain: B4 chain with G122A, G123L
notes: source: E. coli, co-expressed with CF^H7G, SEC

Series [1] addresses wild-type cFLIP^tDED (human, UniProt O15519 1-181). Put plainly: cryo-EM structure; FA^FuL-C8^FuL_FGLG_CADA-CF complex; Complex A without cross-linking (7.5 Å) and Complex B stabilised by GraFix, glutaraldehyde (3.7 Å); Casp-8 protease domain and FADD DD not visible. Conditions: both partners purified.
Series [2] concerns the molecule itself. The series is described as above.
The target in series [3] is cFLIP^tDED H7G mutant (human, UniProt O15519 1-181, H7G). The experiment in a line: crystal structure; FA^FuL_H9G-C8^FGLG-CF^H7G complex; proteins individually expressed in E. coli, complex co-purified by Ni-NTA and SEC (80 mM NaCl, 20 mM Tris pH 8.0); hanging drop, 20 °C; MR-SAD; 3.1 Å; one 1:5:4 complex per asymmetric unit; FADD DD not visible. Particulars: both partners purified.

Series [4] has as its target B1. Put plainly: cryo-EM structure; FA^FuL-C8^FuL_FGLG_CADA-CF complex; Complex A without cross-linking (7.5 Å) and Complex B stabilised by GraFix, glutaraldehyde (3.7 Å); Casp-8 protease domain and FADD DD not visible. Conditions: both partners purified.
In series [5] the target is B3. The experiment in a line: negative-stain EM; C8^FGLG purified by SEC, in the presence of WT FADD with a C-terminal His-tag; FADD detected by Ni-NTA Nanogold; SDS-PAGE of the EM sample. Conditions: both partners purified.
In series [6] the target is B2. Put plainly: crystal structure; FA^FuL_H9G-C8^FGLG-CF^H7G complex; proteins individually expressed in E. coli, complex co-purified by Ni-NTA and SEC (80 mM NaCl, 20 mM Tris pH 8.0); hanging drop, 20 °C; MR-SAD; 3.1 Å; one 1:5:4 complex per asymmetric unit; FADD DD not visible. Conditions: both partners purified.
Series [7] concerns the molecule itself. The experiment in a line: SEC + other: negative-stain EM; Casp-8^tDED_F122A and CF^H7G co-expressed; SEC profile, negative-stain EM and SDS-PAGE of the peak fractions.

Substitutions are numbered along the chain they refer to. Names may count otherwise.

As for B1, the binding result in series [1] is listed as “binds”. For the same molecule, the “stoichiometry N” value in series [2] was 3.

As for B2, the binding result in series [3] was “binds”.

As to B3, in series [4], the binding result was “binds”.

On to B4, for which the binding result in series [5], in series [6] and in series [3] was “binds” throughout.

B5: the binding result in series [7] was “binds”.
